Values quoted from earlier work in patent publication US20120122716A1, “CELL LINE DERIVED FROM THE EPITHELIAL LINING OF THE HUMAN ENDOLYMPHATIC SAC IN THE INNER EAR” (priority 2010, published 2012).

Test system: beta defensin 2
Settings: HMEEC-1 cells; via Src-dependent Raf-MEK1/2-ERK signaling pathway

B1: IL-1α: interleukin 1 alpha, cytokine (protein, UniProt P01583 113-271, looked up)
Interleukin-1 alpha: SAPFSFLSNVKYNFMRIIKYEFILNDALNQSIIRANDQYLTAAALHNLDEAVKFDMGAYKSSKDDAKITVILRISKTQLYVTAQDEDQPVLLKEMPEIPKTITGSETNLLFFWETHGTKNYFTSVAHPNLFIATKQDYWVCLAGGPPSITDFQILENQA
For B1, the “beta defensin 2 expression” value is listed as “up-regulate”.
